Source: the nanobody polyreactivity screen of Harvey et al. (2022)

Test: yeast display, Sf9 membrane polyspecificity reagent, FACS + sequencing; frameworks hold sequencing errors
Summary of the method: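 In a synthetic yeast display library (Saccharomyces cerevisiae BJ5465), nanobody expression was induced with galactose for 36–48 hours. FACS gates were set low and high (top ~1%) using anti-HA fluorescence for expression and streptavidin fluorescence for binding of the Sf9 membrane reagent. Each polyreactivity label is drawn from the gate of origin.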

| Sequence | polyreactivity (PSR sort gate) |
| --- | --- |
| LLQLQESGGVLVQAGCRLRLICAASGSISVTRAMCWYSQAPGKERELVASTTGGSNNADSVNGRFTISRDNAKTTVYLQMNSLKPEDTAVYYCATEYYGPVYDLDYDYCGQGTQVTVSS | low polyreactivity |
| LVQLQESGGGLVQAGGSLRLSCAASGTITPGGYKGWYRQAPGKERELVASINVGGSTNYADSVKGRFTISRDNAKKTVYLQMKSLKPEDNAVYYCAVWGRNRLQLSYWGQGTQVTVSS | low polyreactivity |
| LVQLQESGGGLVQEGGSLRMSCAASGTISPGGYMGWYRQAPGKERELVASINVGGSTNYADSVKGRFTISRDNAKNTVYLQMNSLKPEDNAVYYCAVWGRNRLQLSYWGQGTQVTVSS | low polyreactivity |
| LVQLVESGGCLVQAGGSLRVSCAASGTIFQIKAMGWYRQAPGIEREKVATIRWRGSSTYYADSVKGRFTISRDNAKNTVYLQKNSLKPEDTAVYYSAARAGTLNSGGYYSWGQGTQVSVSS | high polyreactivity |
| LVQLVESGGGLVQAGGSLRLSCAASGRTFRLNALGWYRPAPGNERELVARITGSSGGSTYSADSVKGRFTISRDNAKNTVYLQMNSLKPEDTAVYYCAARYTPRGKRYDYWGQGTQVTGSS | high polyreactivity |
| LVQLVESGGGLVQAGGSLRLSCAASGSIFRYYVMGWYRQAPGKDRELVAAISTGDRTNYADSVKGRFTISRDNPKKTVYLQMNSQKPEDTAVYYCNADYVVGWARLEFNYWGQGTQVTVSS | low polyreactivity |
| LVQLVESGGGLVQAGGSLRLSCAASGSLFVVTAMGWYRQAPGKERELVAAFSSGGRTYYADSVKGRFTISRDNAKNTVYLQMNSVKPEDTAVYYCAAGGWRGHCYWGQGTQVTVSS | high polyreactivity |
| LVQLVESGGGLVQAGGSLSLSCAAYGRTFAKNAMGWYRQAPGKERDLVAVINRSGGSTYADSVKGRFTISRDNAKNTVYLQMNSLKPEDTAVYYWADYYFRSYSKTYIYPFDYWGQGSQVTVSS | low polyreactivity |
| LVQLVESGGRLVQAGGSLRLSCAASGNIFWYAMGWYRQAPGKERELVAAITYRGSTTYFAYSVKGRVTISRDKAKNTVYLQMNSLHPEDTAVYYCAARASYTRRHVGRPYDYWGQGTQVTVSS | high polyreactivity |
| PVQHVESGGGLVQAGGSLRLSCAASGSTLRTYAMGWYRQAPGKERELVAAISFSTTSTYYADSVKGRFTISRDNAKNTVYLQMNSLKPEDTADYYCAAGPRTRYQPDLPGCYYSWGQGTQVTVSS | high polyreactivity |
| PVQLVDSGGGLVQAGGSLRLSCAASGKIFFGYTMGWYRTAPGKERELVAAITYRGGRTYYADSEKGRFTISRDNAKHTVYLQMNSLKPEDTAVYYFAVGGSGYGRYGGGYARDYWGQGTQVTVSS | high polyreactivity |
| PVQLVESGGGLGQAGGSLSLRCAASGSIFTYYAMVWYRQAPGKERELVADISNSGSTYYADSVNGRFTISRDNAKNTVYLQMNRLKPEDSAVSSCNAEYHDLYDYWGQGTQVTVSS | low polyreactivity |
| PVQLVESGGGLVQAGGSLRLSCAASGFTFFYYAMGGYRQGPGKERELVAALNWSGGRTYYADSVKGRFTISRDNAKNTVYLQRNSLKPEDTAVYYCAVDRSWSTRYPAYPGGYWGQGTQVTVSS | high polyreactivity |
| PVQLVESGGGLVQAGGSLRLSCAASGFTLYDYAMGWYRPAPGKERELVAAISRSGGRTYYADSVKGRFTISRDNAKNTVYLQMNSLKPEDTAVYYCAADILRGQWYEYDYWGQGTQVTVSS | high polyreactivity |
| PVQLVESGGGLVQAGGSLRLSCAASGRIFPSYAMGWYRQAPGKERELVATINGDGGSTYYADSVKGRFTISRDNAKNTVYLQMNSLKPEDTAVYYCAKRYPFAAEYDYWGQGTQVTVSS | low polyreactivity |
| PVQLVESGGGLVQAGGSLRLSCAASGRTFGLNGKGWYRQSPGKEREFVATITGSGTSTYYADSVKGRFTISRDNAKNTVYLQMNSLKPEDSAVYFCAALSGLWGYHYYHEYYYWGQGTQVTVSS | low polyreactivity |
| PVQLVESGGGLVQAGGSLRLSCAASGRTFPFYGMGWYRQAPGKERELVAAISISGGSTYYADSVKGRFTISRDNAKNTVYVQMNSLKPEDTAVYYCAAVGPRSYGFGNGYWGQGTQVTVSS | high polyreactivity |
| PVQLVESGGGLVQAGGSLRLSCAASGSTFRFYTMGWYRQAPGKERELVAAISGSGGSTYYADSVKGRFTISRDNAKNTVYLQMNSLIPEDPAVYFCAADKSRNASHRGYWGQGTQVTVSS | low polyreactivity |
| PVQLVESGGGLVQAGGSLRLSFAASGRTFWVYAMGWYRQAPGKERELVAAINRRGGGTYYADSVKGRFTISRDNAKNTVYLQMNSLKPEDTPVYYCAAVTRNQGSYRYYYWGQGTQVTVSS | high polyreactivity |
| QAQLEESGGGLVQAVGSLRLSCAASGRTFTNNDMGWYIQAPGKERELVAAIRWSGGSTYYADSVKGRFTISRDNAKNTVYFQMNSLKPEDTAVYYCAKGYGYVEAVIVQYDYWGQGTQVTVSS | low polyreactivity |
| QAQLKDSCGGLVQAGGSLRLSCPASGNNTSEYYMGCCRQAPGKGREFVDAIDYGGTTNYADNVKGRFTISRDNAKNTVYLQMNSLRPEDTALYYCAASWDTIGLFAYWGQGSQVTVSS | high polyreactivity |
| QAQLVESGGGLVQAGRSLRLSCAASGSTFRWYAMGWYRQAPGKERELVAAITSSGSTYYADSVKGRFTISRDNAKTTVYLQMNSLKPEDTAVYYCAARANGYWNTYEHDYWGQGIQVTVSS | low polyreactivity |

| Sequence | polyreactivity (PSR sort gate) |
| --- | --- |
| QAQLVESGGGLVQSGGSLRLSCAASGSIFRPYAMGWYRQAPGKERELVAAISSSGGGTYYADSVKGRFTISRDNAKNTVYLQMNILKPEDTSVYLYGSWGQGTQVNVSS | low polyreactivity |
| QDHLVESGGGLVQAGGSLRLSCAASGRTFGRNAMGWYRQAPGKERDFVAAITSSGGSTYYADSVKGRFTISRDNAKNTVYFQMNSLKPEDSAVFYCARSTRYYSWRRMDYWGQGTQVTVSS | high polyreactivity |
| QDHLVESGGGLVQAGGSLRLSCAASGSISWKNAMGWYRQAPGKERELVAAISSTVTYYADSVKGRFTISRDNAKNTVYLQMNSLKPEDTAVYYCAAVYLGYTTLYTGDYCGQGTQVTVSS | low polyreactivity |
| QDLLVDSGGGLVQAGGSLRVSCAASGYTRFYAMGWYRQAPGKERELVAAISSSGGTTYYADSVKGRFTISRDNAKNNVYLQMNSLKPEDTAVYYCAKFLSYSRTLYDYWGQGTQVTVSS | high polyreactivity |
| QDLLVESGGGLLQAGGSLRLICAASGYTFTYYAMGWYRQAPGKERELVAAINYSGGRTDYADSVKGRFTLSRDNAKNTVYLQKNSMNPEDTAVYYCAAYTRNGDFDYWGQGTQVTVSS | high polyreactivity |
| QDLLVESGGGLVQAGGSLRLSCAASGSIFDDYAMGWYRQAPGKERELVAAISSSGTSTYYADSVKGRFTISRDHAKNTVYLQMNSLIPEYTAVYYCAARSAILKSGYLKDYWGQGTQVTVSS | low polyreactivity |
| QDPLEESGGGLVQAGGSLRLSCAASGFTFTDYAMGWTRQAPGKERQLVAVISRSGGSTNYADSVKGRFTISRDKAKNTVYLQMNCLKPEDTAVYYCNAGKYLYRHGFLSSGDMYYWGQGTQVTVSS | high polyreactivity |
| QDQHEESGGGLVQAGGSLRLICAASGLIFPRYAMGWYRPAPGKERELVAAITRGGSTYYADSVKGRFTISRDNAKNTVYLQMNSLKPEDTAVYYCNAELPVHWSWYDYWGQGTQVTVSS | low polyreactivity |
| QDQHGESGGGLVQAGGRLRLSGAASGSTFPGNAMGWYRQAPGKERELVAAITSGGRTYYADSVKGRFTISRDNAKNTVYLQMNSLKPEDTAVYYCAVSTPIQRHGETYAKFDYWGQGTQVTVSS | low polyreactivity |
| QDQHGESGGGLVQAGGSLRLSCAASGYTFLRNDMGWYRQPHGKVRELVAAISYSGGGTYYADSVKGRFTISRDNAKITVYLQMNSLKPEDTAVYYCNVAQRYYGNFFSSRYEYWGQGTQVTVSS | low polyreactivity |
| QDQHVESAGGLVQAGGSRRLSCAASESMFSTYPMGCYSQAPGTESELVATIRRGGSTYYADSVKGRFTISRDNAKNTVYLQMNSLKPEDSAVYYCAATVSSYPYYRYYSWGQGTQVTVSS | high polyreactivity |
| QDQHVESGGGLVQAGGSLRLSCAASGFIISYYDMGWYRQPPGHESELVATIDWSGGSTYYADSVKGRFTISRDNAKNTVYLQLNSLKPEDTAVYYCNADWIFGSAPSGRYKYDYWGQGTQVTVSS | low polyreactivity |
| QDQHVESGGGLVQAGGSLRLSCAASGGIFYTYTMGWYRQAPGKEREFVAAITRSGDRTYYADSVKGRFTISRDNAKNTGYLQMNSLKPEDTAVYYCNTVTRKNPSGLALDEYNYCGQGTQVTVSS | high polyreactivity |
| QDQHVESGGGLVQAGGSLRLSCAASGIIFDYNAMGWYRQAPGKERELVAAITSTDNTNYADSVKGRLTISRDNAKNTVYLQMNSLKPEDTAVYYCNSDYWLSVVYAMDYWGQGTQVTVSS | low polyreactivity |
| QDQHVESGGGLVQAGGSLRLSCAASGLTFGTYAKGWYRQAPGKERELVAAITTGARTYFADSVKGRFTISRDNAKNTVYLKMNSLKPEDTAVYYCAAYKFYSEYEYWGQGTQVTVSS | high polyreactivity |
| QDQHVESGGGLVQAGGSLRLSCAASGSTFGDNAMGWYRQAPGKERELVAAISRGGRTYYADSVKGRFTISRDNAKNTVYLQMNSLKPEDTAVYYCAATSAYRGYWVLRGLSYDYWGQGTQVTVSS | high polyreactivity |
| QDQHVESGGGLVQAGGSLRLSCAASGTIFSYYAMGWYRQAPGKERELVASISWKGTSTYYADSVKGRFTISRDNSKNTVYLQMNSLKPEDTAVYYCNVRFNYRGTYDYWGQGTQVTVSS | low polyreactivity |
| QDQHVESGGGLVQAGGSLRLSCDASGFIFNQNARGWYRQAPGKERELVAAISQRGGRTYYADSVKGRFTISRDNAKNTVYLQMNSLKPEDTAVYYCAAYGPFRFDVDTYDYWGQGTQVTVSS | low polyreactivity |
| QDQHVESVGGLVQAGGSLLLSCAASGFTLRGYALGWDRQAPGKERELVADISGGGSTDYADSVKGRFTISRDNAKNTVYLQMNSLKPLDTAVYYCAAYGYLWWEMDYWGQGTQVTLSS | high polyreactivity |
| QDQIVDSGGGLVQAGVSLRLSCAASGFTFGINTLGWYRQAPGKERELVAGISRTSSTYADSVKGRFTISRDNAKNTVYLQMNSLNAEDTAVYYCAAEYFQTRFGSWRKRYVSWGQGTQVTVSS | high polyreactivity |
| QDQIVESGGGLVQAGGSLRLSCAASGRTFGVNTMGWSRQAPGKVREMVASISTSGGSTYADSVKGRFTISRDNPKNTVYLQMNSLKPEDSAVYYCAKDTDAVYDEFDSWGQGTQVTVSS | low polyreactivity |
